Data set [1] deals with T1, Methoprene-tolerant (Met) protein, AaMet (Aedes aegypti, UniProt Q58FS0).
T1 sequence (Q58FS0 1-597): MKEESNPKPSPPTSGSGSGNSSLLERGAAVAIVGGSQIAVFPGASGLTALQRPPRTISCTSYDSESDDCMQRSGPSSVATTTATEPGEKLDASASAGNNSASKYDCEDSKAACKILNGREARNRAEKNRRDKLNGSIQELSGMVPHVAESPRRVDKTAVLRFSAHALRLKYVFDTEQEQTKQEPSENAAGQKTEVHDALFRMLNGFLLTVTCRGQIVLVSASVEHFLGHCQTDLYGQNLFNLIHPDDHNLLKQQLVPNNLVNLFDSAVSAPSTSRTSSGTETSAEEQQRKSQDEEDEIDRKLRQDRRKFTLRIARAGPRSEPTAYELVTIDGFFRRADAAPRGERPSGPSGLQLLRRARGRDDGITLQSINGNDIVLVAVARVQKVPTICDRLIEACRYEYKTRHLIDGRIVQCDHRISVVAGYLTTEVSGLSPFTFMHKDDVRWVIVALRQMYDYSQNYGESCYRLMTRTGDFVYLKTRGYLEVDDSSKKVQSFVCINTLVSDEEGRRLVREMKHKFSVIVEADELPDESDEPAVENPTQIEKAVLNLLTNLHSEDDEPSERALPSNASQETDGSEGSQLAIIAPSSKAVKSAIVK
Kind of data set: [3H]-JH-III dextran-coated charcoal radioligand binding, Scatchard.

Data set [2] concerns the target bHLH-PAS domain of AaMet fused to the GAL4 DNA-binding domain (Aedes aegypti) (UniProt Q58FS0). As to the kind of experiment: two-hybrid.
A further data set deals with T2, GST-AaMet (bHLH-PAS) (Aedes aegypti, UniProt Q58FS0 1-597).
T2 sequence: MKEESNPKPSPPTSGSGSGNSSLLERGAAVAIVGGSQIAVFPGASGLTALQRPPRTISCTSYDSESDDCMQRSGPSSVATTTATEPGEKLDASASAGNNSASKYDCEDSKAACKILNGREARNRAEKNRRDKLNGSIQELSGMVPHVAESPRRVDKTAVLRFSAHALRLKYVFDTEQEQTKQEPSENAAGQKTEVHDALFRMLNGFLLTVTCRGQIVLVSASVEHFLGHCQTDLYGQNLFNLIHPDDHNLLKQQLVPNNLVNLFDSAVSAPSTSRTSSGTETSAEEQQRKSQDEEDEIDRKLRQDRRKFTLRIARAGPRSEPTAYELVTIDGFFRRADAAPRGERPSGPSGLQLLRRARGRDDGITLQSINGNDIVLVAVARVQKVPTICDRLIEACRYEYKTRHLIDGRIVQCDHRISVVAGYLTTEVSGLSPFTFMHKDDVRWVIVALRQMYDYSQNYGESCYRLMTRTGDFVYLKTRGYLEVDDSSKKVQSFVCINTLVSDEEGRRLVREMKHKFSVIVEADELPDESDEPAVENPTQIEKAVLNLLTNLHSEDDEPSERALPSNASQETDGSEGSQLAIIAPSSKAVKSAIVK
As to the kind of experiment: EMSA.

On to `COC(=O)/C=C(\C)CC/C=C(\C)CC[C@H]1OC1(C)C` [JH-III], for which binding in data set [1] was characterised by a dissociation constant (Kd) of 4.4 ± 1.9 nM.
As to “bHLH-PAS domain of AaFISC fused to the activation domain of GAL4 (domain or fragment)”, the fold enhancement of two-hybrid reporter activation with JH-III in data set [2] is greater than 20 fold.

B1: AaET_JHRE1 (dsDNA)
DNA 1: CCATCCCACACGCGAAGACGATAAAACCA
DNA 2: TGGTTTTATCGTCTTCGCGTGTGGGATGG
Turning to B1, the binding result with GST-AaMet (bHLH-PAS) is recorded as “no binding”.

As usually defined, the Kd is the free concentration of one partner at which half of the binding sites on the other are occupied at equilibrium, for simple one-to-one binding. A lower Kd goes with higher affinity.

For the origin of these results see paper PMC4163509 (Molecular and cellular endocrinology, 2014).
